Laboratory results from patent US20110282033A1 (Ablynx, published 2011).
Substitutions are numbered along the chain they refer to. Values belong to the binder of their own block, whether it stands above or below them.

How the values were obtained:
[1] = molecular target: T1, Recombinant human FGFR4/Fc chimera (R&D Systems Cat #685 FR) (human, UniProt P22455 22-369); assay: ELISA: periplasmic extract on coated FGFR4-Fc (500 ng/ml)
T1 construct: extracellular domain; Bought reagent; also called Fc-FGFR4; not shown: Fc part of the bought chimera (detected with anti-human IgG)
T1 sequence (looked up): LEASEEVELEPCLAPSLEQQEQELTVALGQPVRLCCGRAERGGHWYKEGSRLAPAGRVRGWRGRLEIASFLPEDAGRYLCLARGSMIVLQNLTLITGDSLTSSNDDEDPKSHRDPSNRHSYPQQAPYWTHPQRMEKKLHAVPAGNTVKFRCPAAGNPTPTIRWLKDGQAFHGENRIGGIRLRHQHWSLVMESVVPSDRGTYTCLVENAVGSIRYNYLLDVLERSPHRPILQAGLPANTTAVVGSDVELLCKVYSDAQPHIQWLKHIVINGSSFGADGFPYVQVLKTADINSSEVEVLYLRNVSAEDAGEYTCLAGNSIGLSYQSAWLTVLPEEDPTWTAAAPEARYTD
Description: In order to determine binding specificity to FGFR4, the clones were tested in an ELISA binding assay setup, using the monoclonal […]. Shortly, 500 ng/ml of Fc-FGFR4 (R&D Systems Cat #685 FR) was coated on Maxisorp ELISA plates (Nunc) and free binding sites were blocked using 4% Marvel skimmed milk in PBS. After a wash step with PBS, 10 ul of periplasmic extract from the monoclonal inductions of the different clones in 100 ul 2% Marvel PBS were allowed to bind to the FGFR4-Fc. […] 53-G3 was used as a reference since it was selected against PDGFRβ-Fc.

[2] = molecular target: T2, Recombinant human PDGFRβ/Fc chimera (R&D Systems Cat #385 PR) (human, UniProt P09619 33-532); assay: phage ELISA on PDGFRβ-Fc (0.1 ug/ml) captured by coated anti-human IgG, detection with HRP anti-M13
T2 construct: extracellular domain; Bought reagent; also called PDGFRP-Fc; not shown: Fc part of the bought chimera (captured and detected with anti-human IgG)
Description: In order to determine binding specificity to PDGFRβ-Fc, the clones were tested in an ELISA binding assay setup, using the monoclonal phage pools. Shortly, 1 ug/ml of Fc-capturing Ab (Rabbit anti-human IgG, DAKO # A423) was coated on Maxisorp ELISA plates (Nunc) and free binding sites were blocked using 4% Marvel skimmed milk in PBS. Next, 0.1 ug/ml receptor in 2% Marvel/PBS was captured. After a wash step with PBS, 10 ul of supernatant from the monoclonal phage inductions of the different clones in 100 ul 2% Marvel PBS were allowed to bind to the captured PDGFRP-Fc. […] Binding specificity was determined based on OD values compared to controls having received no phage.

PDGFRb on HeLa cells = molecular target: T3, PDGFRb on HeLa cells (human, UniProt P09619 33-1106); assay: immunofluorescence on HeLa cells, 40 nM Nanobody, detection with mouse anti-myc and goat anti-mouse Alexa 488; PDGFR co-stained with a commercial antibody
T3 construct: whole, on cells; HeLa cells were not transfected
Description: 40 nM of nanobody was added in medium and incubated 30 minutes at room temperature. Cells were put on ice to stop internalization and washed 3 times with ice-cold PBS. Cells were fixed by incubation for 30 minutes with 4% PFA at room temperature. After washing with PBS amine groups were blocked by incubation for 10 min. with 100 mM glycin in PBS at room temperature. After washing cells were permeabilized by incubation for 5 min. with 0.2% TritonX-100 in PBS at room temperature.
Cells were blocked by incubation in 2% Marvell/PBS for 15 minutes. Subsequently nanobodies were detected by incubation for 1 hour with mouse anti-myc (9E10) antibody in 2% Marvell/PBS and after washing 1 hour with goat-anti-mouse-alexa-488 in 2% Marvell/PBS in the dark. After washing coverslips were mounted with 4 ul mowiol and let to dry for at least 30 minutes. Dry slides were stored at −20 C.

[3] = molecular target: dimeric VEGFR1/Fc chimera (R&D Systems Cat #321-FL) (UniProt P17948); assay: competition ELISA: VEGFR1-Fc (0.1 ug/ml) pre-mixed with Nanobody, binding to coated VEGF165 (0.2 ug/ml), detection with HRP anti-human IgG
[4] = molecular target: T2, Recombinant human PDGFRβ/Fc chimera …; assay: ELISA ligand competition with PDGFRβ-Fc and coated PDGF-BB (FIG. 5)
Description: Clones tested in the PDGFRβ binding assay were also screened for their ability to block PDGF-BB binding to PDGFRβ-Fc. For this, Nanobody containing periplasmic extracts, or selected purified Nanobodies, were used in an ELISA-based ligand competition setup. In short, 1.0 ug/ml (80 nM) recombinant human PDGF-BB (R&D Systems #220-BB) was coated in 96 well Maxisorp microtiter plates (Nunc) and blocked with 4% Marvel skimmed milk in PBS. In parallel, 1 ug/ml (12 nM) PDGFRβ-Fc chimera was incubated with periplasmic extracts or purified Nanobody. After 1 hour, the receptor-Nanobody pre-mixes were incubated 1 hour with the coated ligand. Bound PDGFRβ-Fc was detected using HRP-conjugated goat anti-human IgG (Jackson Immunoresearch, Cat #109-035-098). Blocking activity was determined as loss of OD signal, as compared to wells where no Nanobodies, or irrelevant Nb, had been added.

[5] = molecular target: T1, Recombinant human FGFR4/Fc chimera (R&D …); assay: competition ELISA: FGFR4-Fc with heparin and MgCl2 pre-mixed with Nanobody, binding to coated acidic FGF (129 nM), detection with HRP anti-human IgG
Description: Clones tested in the FGFR4 binding assay were also screened for their ability to block acidic FGF binding to FGFR4-Fc. For this, purified Nanobodies, were used in an ELISA-based ligand competition setup. In short, 2.0 ug/ml (129 nM) human FGF (R&D Systems Cat #232-FA/CF) was coated in 96 well Maxisorp microtiter plates (Nunc) and blocked with 4% Marvel skimmed milk in PBS. In parallel, 0.25 ug/ml (1.9 nM) FGFR4-Fc chimera plus 2.5 μg/ml heparin and 10 mM MgCl₂ were incubated with periplasmic extracts or purified Nanobody. After 1 hour, the receptor-Nanobody pre-mixes were incubated 1 hour with the coated ligand. Bound FGFR4-Fc was detected using HRP-conjugated goat anti-human IgG (Jackson Immunoresearch, Cat #109-035-098). Blocking activity was determined as loss of OD signal, as compared to wells where irrelevant Nanobody had been added. […] Ligand is coated at 129 nM and receptor is added at […].

T2 sequence (P09619 33-532, change not shown): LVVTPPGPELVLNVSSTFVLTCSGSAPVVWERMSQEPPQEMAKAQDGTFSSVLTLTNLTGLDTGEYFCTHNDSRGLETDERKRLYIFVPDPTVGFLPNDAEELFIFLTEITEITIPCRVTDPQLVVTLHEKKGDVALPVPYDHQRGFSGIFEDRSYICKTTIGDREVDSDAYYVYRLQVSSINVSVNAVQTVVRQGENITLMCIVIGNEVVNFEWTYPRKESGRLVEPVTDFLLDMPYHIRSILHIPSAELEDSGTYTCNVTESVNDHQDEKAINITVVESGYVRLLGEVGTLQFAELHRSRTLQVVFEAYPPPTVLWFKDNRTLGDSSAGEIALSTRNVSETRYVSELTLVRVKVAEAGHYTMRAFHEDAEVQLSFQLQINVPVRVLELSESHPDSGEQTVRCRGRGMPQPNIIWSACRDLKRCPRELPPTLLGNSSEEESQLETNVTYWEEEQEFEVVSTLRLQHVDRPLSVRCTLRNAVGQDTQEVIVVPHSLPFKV
T3 sequence (P09619 33-1106): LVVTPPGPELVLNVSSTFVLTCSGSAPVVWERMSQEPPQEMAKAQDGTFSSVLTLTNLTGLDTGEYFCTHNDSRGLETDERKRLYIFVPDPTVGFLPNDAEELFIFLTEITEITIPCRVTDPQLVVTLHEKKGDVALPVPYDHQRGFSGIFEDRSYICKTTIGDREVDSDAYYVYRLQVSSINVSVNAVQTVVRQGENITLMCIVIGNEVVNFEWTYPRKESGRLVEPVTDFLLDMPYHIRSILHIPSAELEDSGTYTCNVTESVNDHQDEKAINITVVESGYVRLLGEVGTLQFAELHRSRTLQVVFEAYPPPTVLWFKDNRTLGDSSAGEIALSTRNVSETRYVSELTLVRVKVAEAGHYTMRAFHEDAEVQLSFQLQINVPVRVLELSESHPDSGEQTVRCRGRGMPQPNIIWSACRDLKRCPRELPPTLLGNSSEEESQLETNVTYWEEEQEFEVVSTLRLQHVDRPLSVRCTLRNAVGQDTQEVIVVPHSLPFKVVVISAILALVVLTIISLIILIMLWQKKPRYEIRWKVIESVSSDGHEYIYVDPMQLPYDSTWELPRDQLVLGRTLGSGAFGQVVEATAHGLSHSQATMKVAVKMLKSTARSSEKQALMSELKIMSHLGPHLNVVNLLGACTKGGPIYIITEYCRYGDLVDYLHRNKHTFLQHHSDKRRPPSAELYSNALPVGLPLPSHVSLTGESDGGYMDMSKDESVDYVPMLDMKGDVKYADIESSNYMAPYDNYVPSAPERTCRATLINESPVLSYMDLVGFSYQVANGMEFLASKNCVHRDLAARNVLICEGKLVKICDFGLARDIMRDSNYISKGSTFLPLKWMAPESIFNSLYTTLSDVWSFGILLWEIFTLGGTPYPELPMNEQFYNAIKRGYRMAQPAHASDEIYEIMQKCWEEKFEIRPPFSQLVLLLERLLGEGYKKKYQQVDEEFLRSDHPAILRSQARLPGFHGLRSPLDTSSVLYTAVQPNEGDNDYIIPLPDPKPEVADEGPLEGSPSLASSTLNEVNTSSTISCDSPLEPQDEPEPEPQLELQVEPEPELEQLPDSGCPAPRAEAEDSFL
Sequence of dimeric VEGFR1/Fc chimera (R&D Systems Cat #321-FL) (P17948 27-758 limits assumed, change not shown): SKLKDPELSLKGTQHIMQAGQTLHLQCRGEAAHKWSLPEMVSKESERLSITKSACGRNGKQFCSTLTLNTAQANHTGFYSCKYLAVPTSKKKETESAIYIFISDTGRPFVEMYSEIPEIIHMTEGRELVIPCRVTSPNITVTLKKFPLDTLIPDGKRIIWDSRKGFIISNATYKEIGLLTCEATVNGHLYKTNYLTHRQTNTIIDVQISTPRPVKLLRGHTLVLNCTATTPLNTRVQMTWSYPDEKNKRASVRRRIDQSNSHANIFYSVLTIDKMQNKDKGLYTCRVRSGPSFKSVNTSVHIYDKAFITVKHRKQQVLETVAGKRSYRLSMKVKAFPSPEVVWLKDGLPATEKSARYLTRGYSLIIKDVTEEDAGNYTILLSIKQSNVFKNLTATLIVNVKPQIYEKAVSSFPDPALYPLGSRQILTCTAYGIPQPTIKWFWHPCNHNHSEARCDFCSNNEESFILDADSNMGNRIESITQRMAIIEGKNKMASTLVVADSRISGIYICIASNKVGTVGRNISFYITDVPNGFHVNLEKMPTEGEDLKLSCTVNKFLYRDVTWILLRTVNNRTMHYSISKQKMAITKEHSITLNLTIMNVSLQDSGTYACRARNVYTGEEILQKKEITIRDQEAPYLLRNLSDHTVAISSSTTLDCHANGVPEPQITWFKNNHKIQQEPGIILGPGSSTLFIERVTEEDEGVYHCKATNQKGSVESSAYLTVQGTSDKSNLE

B1: 53-G3 (VHH)
VHH: EVQLVESGGGLVQAGGSLRLSCAASRRTFSSYAMGWFRQAPGKEREIVADISWNGSRTYYADSAKGRFTISRDNAKNTVYLQMNSLKPEDTAVYYCAAALFGGLGRAPSTHEYAYWGQGTQVTVSS
notes: Purified Nanobody; Also used as negative control in the FGFR4 assays
binding result [1]: no binding
binding result [2]: binds
binding result (PDGFRb on HeLa cells): binds

B3: 46-F11 (VHH)
VHH: EVQLVESGGGLVQPGGSLRLSCAASGFTFSSYAMSWVRQAPGKELEWVSGINSGGDRTVNADSVKGRFTVSRDNAKNTLYLQMNSLKPEDTALYYCAKSIPPTDDRNYWGQGTQVTVSS
IC50 (read off the curve) [3]: 1 nM

B5: 73-G9 (VHH)
VHH: EVQLVESGGGLVQPGGSLKLSCAAAGFTFRPYAMGWFRQAPGKEREFVAAVATNVGTTFYQDSVKGRFTISRDNAKNTVYLQMNSLRPEDTAVYYCNTKLYSGIFREYWGQGTQVTVSS
notes: Purified Nanobody
IC50 (read off the curve) [5]: ~10 nM

Now from value to binder:

binding result [2]: binds
binding result (PDGFRb on HeLa cells): binds
B2: 53-B5 (VHH)
VHH: B1 VHH with I47V
notes: Purified Nanobody

binding result [4]: no binding (tested: 50 nM)
B4: 42-H5 (VHH)
VHH: EVQLVESGGGLVQPGGSLTLSCAASGFTFSSYAMSWVRQAPGKGLELVSDINSGGISTYYADSVKGRFTISRDNAKNTLYLQMNSLKPEDTAVYYCKTDTLVAGTDDYWGQGTRVTVSS
notes: Purified Nanobody; Also used as negative control in the PDGFRβ assays
